For 42 molecules, binding result and Per cent adsorbed (per cent adsorbed, printed as fraction) results are on record in patent US20200048331A1 (CANIMGUIDE THERAPEUTICS, published 2020).

Where no end group is shown, it is not given here. The star is where a group is joined. Cam = NC(=O)C*

B1: synthesized albumin peptide 2605 NEETFLKKYLYE (peptide)
peptide: NEETFLKKYLYE
notes: Synthetic (CSBio); also called E5K peptide 2605
B2: synthesized albumin peptide 2606 KLDELRDEGKAS (peptide)
peptide: KLDELRDEGKAS
notes: Synthetic (CSBio); also called E5K peptide 2606
B3: HSA tryptic peptide residues 098-105 LCTVATLR (peptide)
peptide: LCTVATLR
modifications: Cys alkylated with iodoacetamide (from dHSA)
B4: HSA tryptic peptide residues 299-310 … (peptide)
peptide: LKEC(Cam)C(Cam)EKPLLEK
B5: HSA tryptic peptide residues 265-281 … (peptide)
peptide: VHTEC(Cam)C(Cam)HGDLLEC(Cam)ADDR
B6: HSA tryptic peptide residues 089-097 … (peptide)
peptide: SLHTLFGDK
B7: HSA tryptic peptide residues 414-426 … (peptide)
peptide: QNC(Cam)ELFEQLGEYK
B8: HSA tryptic peptide residues 185-198 … (peptide)
peptide: YKAAFTEC(Cam)C(Cam)QAADK
B9: HSA tryptic peptide residues 287-298 … (peptide)
peptide: YIC(Cam)ENQDSISSK
B10: HSA tryptic peptide residues 206-214 … (peptide)
peptide: LDELRDEGK
B11: HSA tryptic peptide residues 161-168 KYLYEIAR (peptide)
peptide: KYLYEIAR
B12: HSA tryptic peptide residues 162-168 YLYEIAR (peptide)
peptide: YLYEIAR
B13: HSA tryptic peptide residues 570-581 … (peptide)
peptide: AVMDDFAAFVEK
B14: HSA tryptic peptide residues 397-413 … (peptide)
peptide: KVFDEFKPLVEEPQNLIKQ
B15: HSA tryptic peptide residues 500-508 … (peptide)
peptide: C(Cam)C(Cam)TESLVNR
B16: HSA tryptic peptide residues 509-524 … (peptide)
peptide: RPC(Cam)FSALEVDETYVPK
B17: HSA tryptic peptide residues 384-396 … (peptide)
peptide: C(Cam)C(Cam)AAADPHEC(Cam)YAK
B18: HSA tryptic peptide residues 427-434 FQNALLVR (peptide)
peptide: FQNALLVR
B19: HSA tryptic peptide residues 131-138 DDNPNLPR (peptide)
peptide: DDNPNLPR
B20: HSA tryptic peptide residues 35-44 … (peptide)
peptide: FKDLGEENFK
B21: HSA tryptic peptide residues 123-130 NECFLQHK (peptide)
peptide: NECFLQHK
modifications: Cys alkylated with iodoacetamide (from dHSA)
B22: HSA tryptic peptide residues 106-117 … (peptide)
peptide: ETYGEMADC(Cam)C(Cam)AK
B23: HSA tryptic peptide residues 066-075 … (peptide)
peptide: LVNEVTEFAK
B24: HSA tryptic peptide residues 187-198 … (peptide)
peptide: AAFTEC(Cam)C(Cam)QAADK
B25: synthesized albumin peptide 3028 VFDEFKPLVEEPQNLIK (peptide)
peptide: VFDEFKPLVEEPQNLIK
notes: Synthetic (CSBio); also called 80
B26: HSA ASP-N peptide residues 495-535 … (peptide)
peptide: RVTKC(Cam)C(Cam)TESLVNRRPC(Cam)FSALEVDETYVPKEFNAETFTFHA
B27: HSA ASP-N peptide residues 348-388 … (peptide)
peptide: VFLGMFLYEYARRHPDYSVVLLLRLAKTYETTLEKC(Cam)C(Cam)AAA
B28: HSA ASP-N peptide residues 536-572 … (peptide)
peptide: IC(Cam)TLSEKERQIKKQTALVELVKHKPKATKEQLKAVM
B29: HSA ASP-N peptide residues 37-79 … (peptide)
peptide: LGEENFKALVLIAFAQYLQQC(Cam)PFEDHVKLVNEVTEFAKTC(Cam)VA
B30: HSA ASP-N peptide residues 283-319 … (peptide)
peptide: LAKYIC(Cam)ENQDSISSKLKEC(Cam)C(Cam)EKPLLEKSHC(Cam)IAEVEN
B31: HSA ASP-N peptide residues 475-517 … (peptide)
peptide: YLSVVLNQLC(Cam)VLHEKTPVSDRVTKC(Cam)C(Cam)TESLVNRRPC(Cam)FSALEV
B32: HSA ASP-N peptide residues 364-398 … (peptide)
peptide: YSVVLLLRLAKTYETTLEKC(Cam)C(Cam)AAADPHEC(Cam)YAKVF
B33: HSA tryptic peptide residues 118-130 … (peptide)
peptide: QEPERNEC(Cam)FLQHK
B34: HSA ASP-N peptide residues 586-609 … (peptide)
peptide: DDKETC(Cam)FAEEGKKLVAASQAALGL
B35: HSA ASP-N peptide residues 293-319 … (peptide)
peptide: DSISSKLKEC(Cam)C(Cam)EKPLLEKSHC(Cam)IAEVEN
B36: HSA ASP-N peptide residues 62-79 … (peptide)
peptide: DHVKLVNEVTEFAKTC(Cam)VA
B37: HSA ASP-N peptide residues 518-535 … (peptide)
peptide: DETYVPKEFNAETFTHA
B38: HSA ASP-N peptide residues 495-517 … (peptide)
peptide: DRVTKC(Cam)C(Cam)TESLVNRRPC(Cam)FSALEV
B39: HSA ASP-N peptide residues 96-112 … (peptide)
peptide: DKLC(Cam)TVATLRETYGEM

In the first experiment the target is T1, LFA-1 (CD11a) on immune cells (human, UniProt P20701 26-1170; P05107 23-769).
T1 construct: whole, on cells; On acetone-fixed cytospin preparations of human PBMC or THP-1 cells; also called β2-integrin
T1 sequence (P20701 26-1170, chain 1 of 2): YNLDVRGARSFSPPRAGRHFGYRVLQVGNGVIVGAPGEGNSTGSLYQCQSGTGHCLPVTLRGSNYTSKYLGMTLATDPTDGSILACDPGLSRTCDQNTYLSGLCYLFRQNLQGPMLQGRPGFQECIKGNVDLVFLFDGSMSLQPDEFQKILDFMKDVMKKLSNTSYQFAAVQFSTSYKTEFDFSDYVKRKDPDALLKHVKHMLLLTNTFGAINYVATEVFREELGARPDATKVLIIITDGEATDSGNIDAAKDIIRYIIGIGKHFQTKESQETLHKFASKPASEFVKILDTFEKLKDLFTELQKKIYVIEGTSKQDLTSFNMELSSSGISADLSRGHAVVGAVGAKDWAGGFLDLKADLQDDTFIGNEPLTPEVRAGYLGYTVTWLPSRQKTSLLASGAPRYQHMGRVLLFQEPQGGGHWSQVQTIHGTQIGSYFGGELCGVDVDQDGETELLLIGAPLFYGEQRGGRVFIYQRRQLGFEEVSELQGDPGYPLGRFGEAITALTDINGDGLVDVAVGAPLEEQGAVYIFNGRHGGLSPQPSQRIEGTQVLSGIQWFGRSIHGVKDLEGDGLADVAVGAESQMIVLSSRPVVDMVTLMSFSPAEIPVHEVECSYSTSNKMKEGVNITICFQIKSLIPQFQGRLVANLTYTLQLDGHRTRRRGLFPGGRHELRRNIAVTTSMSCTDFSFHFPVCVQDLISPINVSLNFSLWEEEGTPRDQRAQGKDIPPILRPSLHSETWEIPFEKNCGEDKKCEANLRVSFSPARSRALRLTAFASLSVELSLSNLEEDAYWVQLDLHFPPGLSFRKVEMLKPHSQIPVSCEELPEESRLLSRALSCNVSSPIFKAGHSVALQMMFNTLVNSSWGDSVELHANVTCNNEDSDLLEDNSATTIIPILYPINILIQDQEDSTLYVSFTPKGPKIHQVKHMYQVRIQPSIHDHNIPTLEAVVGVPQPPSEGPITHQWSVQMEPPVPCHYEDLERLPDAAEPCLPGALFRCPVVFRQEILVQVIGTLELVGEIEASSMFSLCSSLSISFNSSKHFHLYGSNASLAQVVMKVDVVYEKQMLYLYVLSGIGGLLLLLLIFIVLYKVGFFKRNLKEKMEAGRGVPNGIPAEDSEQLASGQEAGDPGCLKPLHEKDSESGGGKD
T1 sequence (P05107 23-769, chain 2 of 2): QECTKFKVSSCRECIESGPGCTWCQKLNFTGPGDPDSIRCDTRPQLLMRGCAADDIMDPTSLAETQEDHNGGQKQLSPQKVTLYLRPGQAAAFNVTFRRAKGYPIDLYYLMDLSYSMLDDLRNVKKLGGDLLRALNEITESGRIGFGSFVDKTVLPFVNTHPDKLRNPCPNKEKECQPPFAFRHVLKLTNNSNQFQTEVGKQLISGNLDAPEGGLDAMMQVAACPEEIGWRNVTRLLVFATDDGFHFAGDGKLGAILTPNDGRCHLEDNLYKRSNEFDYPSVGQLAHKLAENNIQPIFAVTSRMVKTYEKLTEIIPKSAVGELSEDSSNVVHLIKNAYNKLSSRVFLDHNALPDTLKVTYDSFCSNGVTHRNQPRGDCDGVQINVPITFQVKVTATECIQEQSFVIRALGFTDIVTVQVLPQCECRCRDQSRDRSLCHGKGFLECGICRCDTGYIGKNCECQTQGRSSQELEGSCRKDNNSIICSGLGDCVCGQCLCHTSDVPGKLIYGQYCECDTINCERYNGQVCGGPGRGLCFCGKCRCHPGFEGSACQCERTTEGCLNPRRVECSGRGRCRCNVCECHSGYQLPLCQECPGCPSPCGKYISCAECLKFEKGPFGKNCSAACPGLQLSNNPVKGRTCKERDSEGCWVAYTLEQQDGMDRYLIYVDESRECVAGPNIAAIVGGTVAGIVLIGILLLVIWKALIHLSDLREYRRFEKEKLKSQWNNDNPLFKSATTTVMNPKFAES
Briefly: effect of peptide pre-incubation on HI111 staining of LFA-1 on PBMC cytospins.
For B1, the binding result is listed as “binds”.

A further experiment addresses T1, LFA-1 (CD11a) on immune cells. Briefly: effect of peptide pre-incubation on HI111 staining of LFA-1 on PBMC and THP-1 cytospins.
In the case of B2, the binding result is given as “binds”.

For a further experiment, the target named is artificial cell surface (ACS): biotinylated cell surface proteins from human mononuclear blood cells coupled to streptavidin-sepharose. Kind of experiment: ACS affinity column adsorption of tryptic dHSA peptides, MALDI-TOF ms.
As for HSA tryptic peptide residues 438-452 …, the Per cent adsorbed (per cent adsorbed, printed as fraction) came out at 0.64.

With HSA tryptic peptide residues 439-452 …, the Per cent adsorbed (per cent adsorbed, printed as fraction) turned out to be 0.59.

Turning to B3, the Per cent adsorbed (per cent adsorbed, printed as fraction) is 0.35. B4 returned a Per cent adsorbed (per cent adsorbed, printed as fraction) of 0.36. For the molecule B5, the Per cent adsorbed (per cent adsorbed, printed as fraction) turned out to be 0.13. B6: the Per cent adsorbed (per cent adsorbed, printed as fraction) stood at 0.36.

In the case of B7, the Per cent adsorbed (per cent adsorbed, printed as fraction) was determined as 0.2. B8 yielded a Per cent adsorbed (per cent adsorbed, printed as fraction) of -0.37. Regarding B9, the Per cent adsorbed (per cent adsorbed, printed as fraction) came out at 0.03.

B10: the Per cent adsorbed (per cent adsorbed, printed as fraction) was 0.02. On to B11, for which the Per cent adsorbed (per cent adsorbed, printed as fraction) is 0.71.

For B12, the Per cent adsorbed (per cent adsorbed, printed as fraction) was 0.34. On the same count and under the same terms, under B13 stands 0.23; under B14, 0.6. Consider B15, for which the Per cent adsorbed (per cent adsorbed, printed as fraction) turned out to be 0.26.

B16 had a Per cent adsorbed (per cent adsorbed, printed as fraction) of 0.42. In turn, B17 gave a Per cent adsorbed (per cent adsorbed, printed as fraction) of 0.32.

In turn, B18 registered a Per cent adsorbed (per cent adsorbed, printed as fraction) of 0.41.

The molecule B19 returned a Per cent adsorbed (per cent adsorbed, printed as fraction) of 0.01. B20 had a Per cent adsorbed (per cent adsorbed, printed as fraction) of 0.08. In turn, B21 gave a Per cent adsorbed (per cent adsorbed, printed as fraction) of 0.22.

The molecule B22 came in with a Per cent adsorbed (per cent adsorbed, printed as fraction) of -0.08. B23 came in with a Per cent adsorbed (per cent adsorbed, printed as fraction) of -0.02. In the case of B24, the Per cent adsorbed (per cent adsorbed, printed as fraction) came to 0.29.

The target in the next experiment is T1, LFA-1 (CD11a) on immune cells. Briefly: inferred from modulation of HI111 staining of LFA-1 on mononuclear blood cells.
On to B25, for which the binding result is “binds”.

For the next experiment, the target named is artificial cell surface (ACS): biotinylated cell surface proteins from human mononuclear blood cells coupled to streptavidin-sepharose. Briefly: ACS affinity column adsorption of ASP-N dHSA peptides (3200-9000 Da), MALDI-TOF ms.
As to HSA ASP-N peptide residues 96-130 …, the Per cent adsorbed (per cent adsorbed, printed as fraction) was found to be 1.

With B26, the Per cent adsorbed (per cent adsorbed, printed as fraction) worked out at 1. Take B27: the Per cent adsorbed (per cent adsorbed, printed as fraction) stood at 1.

B28 came in with a Per cent adsorbed (per cent adsorbed, printed as fraction) of 1. Turning to B29, the Per cent adsorbed (per cent adsorbed, printed as fraction) worked out at 1. As for B30, the Per cent adsorbed (per cent adsorbed, printed as fraction) was 1. Molecule B31 gave a Per cent adsorbed (per cent adsorbed, printed as fraction) of 0.37. B32: the Per cent adsorbed (per cent adsorbed, printed as fraction) was found to be 1.

The target is the same in the next experiment. Briefly: ACS affinity column adsorption of tryptic dHSA peptides, MALDI-TOF ms; first of two lines for this peptide.
In turn, B33 had a Per cent adsorbed (per cent adsorbed, printed as fraction) of 0.26.

Another experiment has the same target. Briefly: ACS affinity column adsorption of tryptic dHSA peptides, MALDI-TOF ms; second of two lines for this peptide.
For B33, the Per cent adsorbed (per cent adsorbed, printed as fraction) came to 0.18.

The next experiment has the same target. Kind of experiment: ACS affinity column adsorption of ASP-N dHSA peptides (700-3600 Da), MALDI-TOF ms.
B34: the Per cent adsorbed (per cent adsorbed, printed as fraction) worked out at 1. For the molecule B35, the Per cent adsorbed (per cent adsorbed, printed as fraction) turned out to be 0.65. On the same count and under the same terms, the figure for B36 is 1; for B37 it is 0.86; for B38 it is 0.87. Turning to B39, the Per cent adsorbed (per cent adsorbed, printed as fraction) was 0.65.
